Test results: US20160159928A1
Several values for one entry are separate records, joined by “and”; a condition that tells them apart may be missing. Equal values may be shown once.

Tests used:
[1] = target: Kv1.3 (human) (UniProt P22001); test: cell-based or functional assay
[2] = target: CXCR1 (UniProt P25024); test: cell-based or functional assay
Chain of CXCR1 (P25024 whole entry): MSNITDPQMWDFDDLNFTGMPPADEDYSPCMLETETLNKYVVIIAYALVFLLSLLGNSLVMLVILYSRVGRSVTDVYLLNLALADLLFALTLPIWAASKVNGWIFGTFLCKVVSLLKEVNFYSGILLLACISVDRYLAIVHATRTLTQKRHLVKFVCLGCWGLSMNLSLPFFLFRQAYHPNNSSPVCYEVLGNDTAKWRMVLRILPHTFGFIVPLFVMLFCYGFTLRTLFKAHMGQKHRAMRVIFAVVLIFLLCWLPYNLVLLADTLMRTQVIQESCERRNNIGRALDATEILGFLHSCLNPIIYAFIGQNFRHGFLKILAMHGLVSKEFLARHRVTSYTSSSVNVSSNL

Chain of Kv1.3 (human) (P22001 whole entry): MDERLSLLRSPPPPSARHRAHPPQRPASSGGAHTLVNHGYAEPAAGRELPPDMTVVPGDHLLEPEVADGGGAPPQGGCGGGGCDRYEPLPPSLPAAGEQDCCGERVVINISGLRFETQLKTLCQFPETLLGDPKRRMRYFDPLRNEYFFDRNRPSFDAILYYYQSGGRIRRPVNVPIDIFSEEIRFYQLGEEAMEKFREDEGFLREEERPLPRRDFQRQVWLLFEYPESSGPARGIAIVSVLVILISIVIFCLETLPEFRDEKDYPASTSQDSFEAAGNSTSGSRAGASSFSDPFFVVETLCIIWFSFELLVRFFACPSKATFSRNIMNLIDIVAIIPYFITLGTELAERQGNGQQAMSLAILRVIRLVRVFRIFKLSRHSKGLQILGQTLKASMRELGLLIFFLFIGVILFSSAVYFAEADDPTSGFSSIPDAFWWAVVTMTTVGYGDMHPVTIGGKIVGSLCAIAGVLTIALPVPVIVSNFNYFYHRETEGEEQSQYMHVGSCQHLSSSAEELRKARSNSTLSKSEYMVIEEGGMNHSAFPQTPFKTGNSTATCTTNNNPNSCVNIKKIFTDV

B1: VH4-34 MutE 3xGGS NoKnob IgG (antibody, V domains shown)
VH: QVQLREWGAGLLKPSETLSLTCAVYGGSFSDKYWSWIRQPPGKGLEWIGSINHSGSTNYNPSLKSRVTISVDTSKNQFSLKLSSVTAADTAVYYCTSVHQETKKYQSGGSGGSGGSSYTYNYEWHVDVWGQGLLVTVSS
VL: QAVLNQPSSVSGSLGQKVTISCSGSSSNIGNNYVSWYQQLPGTAPRTLIYGDTKRPSGIPDRFSGSKSGTSATLGITGLQTGDEADYYCASAEDSSSNAVFGSGTTLTVLG
IL-2 ELISA (A450), Donor 1, [IgG] 0.01 nM [1]: 2.18 A450 and 2.23 A450
IL-2 ELISA (A450), Donor 1, [IgG] 0.75 nM [1]: 2.19 A450 and 2.17 A450
IL-2 ELISA (A450), Donor 1, [IgG] 68 nM [1]: 1.42 A450 and 1.31 A450
IL-2 ELISA (A450), Donor 2, [IgG] 0.01 nM [1]: 1.75 A450
IL-2 ELISA (A450), Donor 2, [IgG] 0.75 nM [1]: 1.61 A450 and 1.42 A450
IL-2 ELISA (A450), Donor 2, [IgG] 68 nM [1]: 1.32 A450 and 0.934 A450
IL-17 ELISA (A450), Donor 1, 0.00 nM IgG [1]: 0 A450
IL-17 ELISA (A450), Donor 1, 0.02 nM IgG [1]: 1.35 A450
IL-17 ELISA (A450), Donor 1, 0.08 nM IgG [1]: 1.34 A450
IL-17 ELISA (A450), Donor 1, 0.34 nM IgG [1]: 1.27 A450
IL-17 ELISA (A450), Donor 1, 1.54 nM IgG [1]: 1.18 A450
IL-17 ELISA (A450), Donor 1, 6.9 nM IgG [1]: 0.828 A450
IL-17 ELISA (A450), Donor 1, 31 nM IgG [1]: 0.453 A450
IL-17 ELISA (A450), Donor 1, 140 nM IgG [1]: 0.247 A450
IL-17 ELISA (A450), Donor 2, 0.00 nM IgG [1]: 0 A450
IL-17 ELISA (A450), Donor 2, 0.02 nM IgG [1]: 0.959 A450
IL-17 ELISA (A450), Donor 2, 0.08 nM IgG [1]: 0.777 A450
IL-17 ELISA (A450), Donor 2, 0.34 nM IgG [1]: 0.82 A450
IL-17 ELISA (A450), Donor 2, 1.54 nM IgG [1]: 0.785 A450
IL-17 ELISA (A450), Donor 2, 6.9 nM IgG [1]: 0.641 A450
IL-17 ELISA (A450), Donor 2, 31 nM IgG [1]: 0.364 A450
IL-17 ELISA (A450), Donor 2, 140 nM IgG [1]: 0.096 A450
TNF-α ELISA (A450), Donor 1, 0.00 nM IgG [1]: 0 A450
TNF-α ELISA (A450), Donor 1, 0.02 nM IgG [1]: 1.52 A450
TNF-α ELISA (A450), Donor 1, 0.08 nM IgG [1]: 1.45 A450
TNF-α ELISA (A450), Donor 1, 0.34 nM IgG [1]: 1.42 A450
TNF-α ELISA (A450), Donor 1, 1.54 nM IgG [1]: 1.33 A450
TNF-α ELISA (A450), Donor 1, 6.9 nM IgG [1]: 1.1 A450
TNF-α ELISA (A450), Donor 1, 31 nM IgG [1]: 0.808 A450
TNF-α ELISA (A450), Donor 1, 140 nM IgG [1]: 0.402 A450
TNF-α ELISA (A450), Donor 1, [IgG] 0.01 nM [1]: 1.91 A450 and 1.88 A450
TNF-α ELISA (A450), Donor 1, [IgG] 0.75 nM [1]: 1.76 A450 and 1.67 A450
TNF-α ELISA (A450), Donor 1, [IgG] 68 nM [1]: 1.12 A450 and 1.08 A450
TNF-α ELISA (A450), Donor 2, 0.00 nM IgG [1]: 0 A450
TNF-α ELISA (A450), Donor 2, 0.02 nM IgG [1]: 1.56 A450
TNF-α ELISA (A450), Donor 2, 0.08 nM IgG [1]: 1.42 A450
TNF-α ELISA (A450), Donor 2, 0.34 nM IgG [1]: 1.55 A450
TNF-α ELISA (A450), Donor 2, 1.54 nM IgG [1]: 1.29 A450
TNF-α ELISA (A450), Donor 2, 6.9 nM IgG [1]: 0.916 A450
TNF-α ELISA (A450), Donor 2, 31 nM IgG [1]: 0.438 A450
TNF-α ELISA (A450), Donor 2, 140 nM IgG [1]: 0.167 A450
TNF-α ELISA (A450), Donor 2, [IgG] 0.01 nM [1]: 2.23 A450 and 2.1 A450
TNF-α ELISA (A450), Donor 2, [IgG] 0.75 nM [1]: 2.1 A450 and 1.88 A450
TNF-α ELISA (A450), Donor 2, [IgG] 68 nM [1]: 1.8 A450 and 1.32 A450

B2: VH4-34 MutE 3xGGS NoKnob (antibody, V domains shown)
VH: QVQLREWGAGLLKPSETLSLTCAVYGGSFSDKYWSWIRQPPGKGLEWIGSINHSGSTNYNPSLKSRVTISVDTSKNQFSLKLSSVTAADTAVYYCTSVHQETKKYQSGGSGGSGGSSYTYNYEWHVDVWGQGLLVTVSS
VL: QAVLNQPSSVSGSLGQKVTISCSGSSSNIGNNYVSWYQQLPGTAPRTLIYGDTKRPSGIPDRFSGSKSGTSATLGITGLQTGDEADYYCASAEDSSSNAVFGSGTTLTVLG
IL-2 ELISA (A450); Donor 1; 0.04 nM IgG [1]: 0.333 A450
IL-2 ELISA (A450); Donor 1; 0.6 nM IgG [1]: 0.356 A450
IL-2 ELISA (A450); Donor 1; 9.4 nM IgG [1]: 0.371 A450
IL-2 ELISA (A450); Donor 1; 150 nM IgG [1]: 0.232 A450
IL-2 ELISA (A450); Donor 2; 0.04 nM IgG [1]: 0.976 A450
IL-2 ELISA (A450); Donor 2; 0.6 nM IgG [1]: 0.795 A450
IL-2 ELISA (A450); Donor 2; 9.4 nM IgG [1]: 0.808 A450
IL-2 ELISA (A450); Donor 2; 150 nM IgG [1]: 0.475 A450
TNF-α ELISA (A450); Donor 1; 0.04 nM IgG [1]: 0.76 A450
TNF-α ELISA (A450); Donor 1; 0.6 nM IgG [1]: 0.813 A450
TNF-α ELISA (A450); Donor 1; 9.4 nM IgG [1]: 0.821 A450
TNF-α ELISA (A450); Donor 1; 150 nM IgG [1]: 0.599 A450
TNF-α ELISA (A450); Donor 2; 0.04 nM IgG [1]: 0.736 A450
TNF-α ELISA (A450); Donor 2; 0.6 nM IgG [1]: 0.631 A450
TNF-α ELISA (A450); Donor 2; 9.4 nM IgG [1]: 0.622 A450
TNF-α ELISA (A450); Donor 2; 150 nM IgG [1]: 0.366 A450

B3: VH4-34+CDR3-IL8_CDR1-Cow_Q5RQ6E with VL1-51 S2A, T5N, P8S, A12G, A13S, P14L, K46R, L47T, D51G, N52D, N53T (antibody)
VH: QVQLREWGAGLLKPSETLSLTCTASGFSLSDKAVGWIRQPPGKGLEWIGEINHSGSTNYNPSLKSRVTISVDTSKNQFSLKLSSVTAADTAVYYCTSVHQETKKYQSPRSAKELRCQCIKTYSKPFHPKFIKELRVIESGPHCANTEIIVKLSDGRELCLDPKENWVQRVVEKFLKRAENSGSGSYTYNYEWHVDVWGQGLLVTVSS
light: QAVLNQPSSVSGSLGQKVTISCSGSSSNIGNNYVSWYQQLPGTAPRTLIYGDTKRPSGIPDRFSGSKSGTSATLGITGLQTGDEADYYCASAEDSSSNAVFGSGTTLTVLGQPKAAPSVTLFPPSSEELQANKATLVCLISDFYPGAVTVAWKADSSPVKAGVETTTPSKQSNNKYAASSYLSLTPEQWKSHRSYSCQVTHEGSTVEKTVAPTECS
luminescence at 0.1 nM IL-8 domains [2]: 4180
luminescence at 0.4 nM IL-8 domains [2]: 5190
luminescence at 0.5 nM IL-8 domains [2]: 6620
luminescence at 1.6 nM IL-8 domains [2]: 6410
luminescence at 2.2 nM IL-8 domains [2]: 13500
luminescence at 6.25 nM IL-8 domains [2]: 10500
luminescence at 9.9 nM IL-8 domains [2]: 21900
luminescence at 25 nM IL-8 domains [2]: 14600
luminescence at 44 nM IL-8 domains [2]: 24000
luminescence at 100 nM IL-8 domains [2]: 18000
luminescence at 200 nM IL-8 domains [2]: 25000

B4: VH4-34+CDR3-IL8_CDR1-G31DY32K_CDR2-E50S with VL1-51 S2A, T5N, P8S, A12G, A13S, P14L, K46R, L47T, D51G, N52D, N53T (antibody)
VH: QVQLQQWGAGLLKPSETLSLTCAVYGGSFSDKYWSWIRQPPGKGLEWIGSINHSGSTNYNPSLKSRVTISVDTSKNQFSLKLSSVTAADTAVYYCTSVHQETKKYQSPRSAKELRCQCIKTYSKPFHPKFIKELRVIESGPHCANTEIIVKLSDGRELCLDPKENWVQRVVEKFLKRAENSGSGSYTYNYEWHVDVWGQGLLVTVSSAS
light: QAVLNQPSSVSGSLGQKVTISCSGSSSNIGNNYVSWYQQLPGTAPRTLIYGDTKRPSGIPDRFSGSKSGTSATLGITGLQTGDEADYYCASAEDSSSNAVFGSGTTLTVLGQPKAAPSVTLFPPSSEELQANKATLVCLISDFYPGAVTVAWKADSSPVKAGVETTTPSKQSNNKYAASSYLSLTPEQWKSHRSYSCQVTHEGSTVEKTVAPTECS
luminescence at 0.4 nM IL-8 domains [2]: 5420
luminescence at 1.6 nM IL-8 domains [2]: 5710
luminescence at 6.25 nM IL-8 domains [2]: 7160
luminescence at 25 nM IL-8 domains [2]: 11200
luminescence at 100 nM IL-8 domains [2]: 15500

B5: VH4-34+CDR3-IL8_CDR1-Cow_CDR2-Cow with VL1-51 S2A, T5N, P8S, A12G, A13S, P14L, K46R, L47T, D51G, N52D, N53T (antibody)
VH: QVQLQQWGAGLLKPSETLSLTCTASGFSLSDKAVGWIRQPPGKGLEWLGSIDTGGNTGYNPSLKSRVTISVDTSKNQFSLKLSSVTAADTAVYYCTSVHQETKKYQSPRSAKELRCQCIKTYSKPFHPKFIKELRVIESGPHCANTEIIVKLSDGRELCLDPKENWVQRVVEKFLKRAENSGSGSYTYNYEWHVDVWGQGLLVTVSSAS
light: QAVLNQPSSVSGSLGQKVTISCSGSSSNIGNNYVSWYQQLPGTAPRTLIYGDTKRPSGIPDRFSGSKSGTSATLGITGLQTGDEADYYCASAEDSSSNAVFGSGTTLTVLGQPKAAPSVTLFPPSSEELQANKATLVCLISDFYPGAVTVAWKADSSPVKAGVETTTPSKQSNNKYAASSYLSLTPEQWKSHRSYSCQVTHEGSTVEKTVAPTECS
luminescence at 0.4 nM IL-8 domains [2]: 6310
luminescence at 1.6 nM IL-8 domains [2]: 7400
luminescence at 6.25 nM IL-8 domains [2]: 10200
luminescence at 25 nM IL-8 domains [2]: 15400
luminescence at 100 nM IL-8 domains [2]: 21600

B6: VH4-34+CDR3-IL8_CDR1-G31DY32K_CDR2-E50S_Q5RQ6E with VL1-51 S2A, T5N, P8S, A12G, A13S, P14L, K46R, L47T, D51G, N52D, N53T (antibody)
VH: QVQLREWGAGLLKPSETLSLTCAVYGGSFSDKYWSWIRQPPGKGLEWIGSINHSGSTNYNPSLKSRVTISVDTSKNQFSLKLSSVTAADTAVYYCTSVHQETKKYQSPRSAKELRCQCIKTYSKPFHPKFIKELRVIESGPHCANTEIIVKLSDGRELCLDPKENWVQRVVEKFLKRAENSGSGSYTYNYEWHVDVWGQGLLVTVSS
light: QAVLNQPSSVSGSLGQKVTISCSGSSSNIGNNYVSWYQQLPGTAPRTLIYGDTKRPSGIPDRFSGSKSGTSATLGITGLQTGDEADYYCASAEDSSSNAVFGSGTTLTVLGQPKAAPSVTLFPPSSEELQANKATLVCLISDFYPGAVTVAWKADSSPVKAGVETTTPSKQSNNKYAASSYLSLTPEQWKSHRSYSCQVTHEGSTVEKTVAPTECS
luminescence at 0.1 nM IL-8 domains [2]: 4060
luminescence at 0.4 nM IL-8 domains [2]: 6190
luminescence at 0.5 nM IL-8 domains [2]: 5300
luminescence at 1.6 nM IL-8 domains [2]: 8160
luminescence at 2.2 nM IL-8 domains [2]: 10300
luminescence at 6.25 nM IL-8 domains [2]: 13500
luminescence at 9.9 nM IL-8 domains [2]: 17100
luminescence at 25 nM IL-8 domains [2]: 21000
luminescence at 44 nM IL-8 domains [2]: 23300
luminescence at 100 nM IL-8 domains [2]: 25900
luminescence at 200 nM IL-8 domains [2]: 22300
